The values that follow come from patent publication US20180271994A1 (published 2018).

For test [1], the target named is immunodominant epitope of the MUC18 antigen. As to the kind of experiment: phage ELISA, peptide coated at 100 ug/ml (control phage).
Another test addresses unrelated peptide. As to the kind of experiment: phage ELISA, well with unrelated peptide (control).
Test [2] concerns the target immunodominant epitope of the MUC18 antigen. As to the kind of experiment: phage ELISA, peptide coated at 100 ug/ml.
Test [3] has the same target. As to the kind of experiment: phage ELISA, peptide well against negative control well.
A further test concerns the target T1, MUC18 antigen (human, UniProt P43121 24-646).
T1 sequence (looked up): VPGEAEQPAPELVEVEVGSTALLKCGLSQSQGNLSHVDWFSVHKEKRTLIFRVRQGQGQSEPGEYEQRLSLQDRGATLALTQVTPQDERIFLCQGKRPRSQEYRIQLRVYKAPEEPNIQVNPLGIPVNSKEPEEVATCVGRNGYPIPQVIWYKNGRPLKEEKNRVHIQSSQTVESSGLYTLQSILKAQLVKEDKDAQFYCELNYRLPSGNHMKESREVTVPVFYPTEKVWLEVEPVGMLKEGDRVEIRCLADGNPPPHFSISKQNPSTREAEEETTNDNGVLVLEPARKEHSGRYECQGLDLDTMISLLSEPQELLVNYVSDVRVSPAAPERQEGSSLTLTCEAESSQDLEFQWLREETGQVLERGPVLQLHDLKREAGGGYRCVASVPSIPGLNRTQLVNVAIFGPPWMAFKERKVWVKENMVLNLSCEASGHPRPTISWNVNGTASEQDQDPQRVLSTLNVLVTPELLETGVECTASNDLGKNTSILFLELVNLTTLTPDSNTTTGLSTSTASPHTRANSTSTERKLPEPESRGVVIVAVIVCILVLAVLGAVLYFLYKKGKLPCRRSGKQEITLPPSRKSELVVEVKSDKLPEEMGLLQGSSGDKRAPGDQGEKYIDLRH
As to the kind of experiment: cell-based or functional assay.

Molecule unrelated phage had a mean absorbance (OD 450 nm) in test [1] of 0.17 OD450.

B1: anti-MUC18 HscFv-displaying phage (scFv)
scFv: GRGALVESGPGLVKPSETLFLTCTVSGGSISSYYWSWIRQPAGKGLEWIAYIYYSGSTNYNPSLKSRVTISVDTSNNQFSLKLSSVTAADTAVYYCAKLTAAGGHFDPWGQGTLVTVSSGGGGSGGGGSGGGGSDIVMTQSPSSLSASIGDRVTITCRASQGISNFLAWFQQKPGKAPKSLIYAASSLQSGVPSKFSGSGSGTDFTLAISSLQPEDFATYYCLQDSDYPLTFGGGTKLEIKR
On to B1, for which the mean absorbance (OD 450 nm) with unrelated peptide was 0.1 OD450; in test [2], 1.6 OD450. Also, in test [3], the fold OD over negative control well came to 4 fold.

B2: anti-MUC18 human immunotoxin (other)
chain: GRGALVESGPGLVKPSETLFLTCTVSGGSISSYYWSWIRQPAGKGLEWIAYIYYSGSTNYNPSLKSRVTISVDTSNNQFSLKLSSVTAADTAVYYCAKLTAAGGHFDPWGQGTLVTVSSGGGGSGGGGSGGGGSDIVMTQSPSSLSASIGDRVTITCRASQGISNFLAWFQQKPGKAPKSLIYAASSLQSGVPSKFSGSGSGTDFTLAISSLQPEDFATYYCLQDSDYPLTFGGGTKLEIKRASGGPEGGSRHRQPRGWEQLADVVSLTCPVAAGECAGPADSGDALLERNYPTGAEFLGDGGAISFSTRGTQNWTVERLLQAHRQLEEGGYVFVGYHGTFLEAAQSIVFGGVRARSQDLDAIWAGFYIAGDPALAYGYAQDQEPDAAGRIRNGALLRVYVPRSSLPGFYATGLTLAAPEAAGEVERLIGHPLPLRLDAITGPEEAGGRLETILGWPLAERTVVIPSAIPTDPRNVGGDLDPSSIPDSEAAISALPDYASQPGKPPKDEL
With B2, in the test with MUC18 antigen, the “IC50, MTT assay, A375 cells, 24 hours” value is approximately 2.1 nM and the “IC50, MTT assay, DU145 cells, 24 hours” value is approximately 6.1 nM.
